This is an account of results in patent publication US20190169308A1 (ALLIGATOR BIOSCIENCE, published 2019).

The target of test [1] is T1, CD40-Fc (Ancell #504-820) (human, UniProt P25942 21-193).
T1 construct: not shown: Fc part, bought reagent, not described
Put plainly: ELISA, coated CD40-Fc. The procedure: (§1) ELISA plates (Greiner #655074) were coated with 50 μl/well of recombinant human OX40 (R&D #1493-CD), CD40-Fc (Ancell #504-820) or CD137 (R&D #838-4B) diluted to a final concentration of 0.5 μg/ml in PBS for 1h at 37° C. or overnight at 4° C. Plates were washed with PBS+0.05% TWEEN20 (PBST), followed by block with PBST+1% bovine serum albumin (BSA). Antibody samples were prepared as serial 1/10 dilutions from 10-0.01 μg/ml in PBST+1% BSA and incubated for 1 h in room temperature, followed by detection using a horse radish peroxidase-conjugated anti-human kappa light chain antibody (AbD Serotec #STAR127P) and developed using SuperSignal ELISA Pico Chemiluminescent substrate (Pierce ThermoScientific #37069).
On the technique in general: ELISA stands for enzyme-linked immunosorbent assay.

The target in test [2] is T2, recombinant human OX40 (R&D #1493-CD) (human, UniProt P43489 29-216, limits assumed).
T2 sequence (looked up): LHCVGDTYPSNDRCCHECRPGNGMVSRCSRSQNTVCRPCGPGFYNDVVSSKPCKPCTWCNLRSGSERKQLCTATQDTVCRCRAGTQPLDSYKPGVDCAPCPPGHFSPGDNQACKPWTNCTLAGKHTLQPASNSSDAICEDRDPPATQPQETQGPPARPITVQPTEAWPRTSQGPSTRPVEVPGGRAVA
Put plainly: ELISA, coated OX40. As to the method: as §1

The target in test [3] is T3, recombinant human CD137-Fc (R&D #838-4B) (human, UniProt Q07011 24-186).
T3 construct: bought; also called CD137 (R&D #838-4B); not shown: Fc part, bought reagent, not described
T3 sequence (Q07011 24-186 limits assumed): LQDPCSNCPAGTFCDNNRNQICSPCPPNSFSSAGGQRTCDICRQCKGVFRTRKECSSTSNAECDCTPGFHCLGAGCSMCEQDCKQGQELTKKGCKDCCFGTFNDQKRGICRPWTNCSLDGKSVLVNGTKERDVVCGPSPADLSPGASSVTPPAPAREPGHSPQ
Put plainly: ELISA, coated CD137-Fc. The procedure: Binding of CD137 antibodies to recombinant human CD137 was determined by sandwich ELISA. Briefly, ELISA plates (Greiner #655074) coated with recombinant human CD137-Fc (R&D #838-4B) were incubated with serial dilutions of the various CD137 antibodies to be investigated. CD137 antibodies were detected using HRP-conjugated goat-anti-human kappa light chain (AbD Serotec #STAR127P) and developed with SuperSignal ELISA Pico Chemiluminescent substrate (Pierce #37069). EC50 values of the various antibodies were determined in 2-6 separate experiments.

The target of test [4] is T4, cynomolgus CD137 on transfected CHO cells (cynomolgus; human).
T4 construct: extracellular domain;domain: transmembrane and intracellular part; also called CHO-cyCD137; CHOcynoCD137
T4 sequence (P25942 other isoform, or with tags, fused parts or gaps): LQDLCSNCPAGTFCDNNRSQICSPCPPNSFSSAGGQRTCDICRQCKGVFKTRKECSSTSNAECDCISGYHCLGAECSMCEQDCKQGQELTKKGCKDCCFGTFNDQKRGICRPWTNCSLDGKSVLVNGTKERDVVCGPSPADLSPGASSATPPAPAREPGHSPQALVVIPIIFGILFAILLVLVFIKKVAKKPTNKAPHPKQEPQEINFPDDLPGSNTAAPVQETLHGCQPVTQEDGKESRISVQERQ
Put plainly: flow cytometry, CD137-transfected CHO cells. The procedure: (§2) Binding and EC50 was determined using flow cytometric analysis of CHO cells transfected with human CD137, cynomolgus CD137 or empty vector. The extracellular part of human or cynomolgus CD137 was fused to the transmembrane and intracellular part of human CD40 and cloned into pcDNA3.1. The vector was subsequently stably transfected into CHO cells. […] CD137-transfected and empty vector-transfected cells were incubated with CD137 antibodies for at least 1h at 4° C. to saturate the binding. In order to minimize antibody internalization, 0.05% sodium azide was used in the incubation buffer and all work was performed on ice. […] Directly after staining the cells were fixed with a paraformaldehyde solution (10x concentrate BD CellFIX, BD biosciences #340181). Cells were analyzed by flow cytometry using FACSVerse (BD Biosciences). The median fluorescence intensity (MFI) for each sample was determined and the dose response data was analysed using Graph Pad Prism.
(§3) MFI data was normalized for each antibody, where 0% is defined as the lowest value and 100% is the highest value in the dose titration for each antibody.
(In flow cytometry, cells or beads pass a laser one at a time.)

Test [5] has as its target T4, cynomolgus CD137 on transfected CHO …. Put plainly: flow cytometry, CHO-cyCD137; 95% CI of EC50. As to the method: as §2, §3
Test [6] has as its target T5, human CD137 on transfected CHO cells (human, UniProt Q07011 24-186; P25942 194-277, limits assumed).
T5 construct: extracellular domain;domain: transmembrane and intracellular part; also called CHO-huCD137; CHOhCD137
Put plainly: flow cytometry, CHO-huCD137; 95% CI of EC50. The procedure:
as §2, §3

In test [7] the target is T6, human/mouse CD137 chimera 1550.
T6 construct: on transfected FreeStyle 293-F cells
Put plainly: flow cytometry, 293-F cells with CD137 chimera. The procedure:
(§4) The ability of each antibody to bind to a panel of human/mouse CD137 chimeras expressed on the surface of transfected cells was analyzed by flow cytometry.
(§5) The chimeras were designed by exchanging domains or modules of the human CD137 with the corresponding mouse domain (FIG. 7). Genes of CD137 human/mouse chimeras were synthesized (GenScript) and constructs cloned into pcDNA3.1 vector (Invitrogen) and transiently transfected into FreeStyle 293-F cells (Invitrogen). The transfected cells were incubated with CD137 antibodies and control antibodies, followed by incubation with anti-human IgG-PE (Jackson Immunoresearch) for detection and analyzed with FACS Verse (BD Biosciences). Binding to the different chimeric constructs was calculated as relative MFI compared to the binding of the isotype control, followed by normalization to the full-length human CD137 construct to minimize the effect of affinity differences between individual antibodies.

Test [8] addresses T7, human/mouse CD137 chimera 1551.
T7 construct: on transfected FreeStyle 293-F cells
Put plainly: flow cytometry, 293-F cells with CD137 chimera. As to the method: as §4, §5

Test [9] has as its target T8, human/mouse CD137 chimera 1552.
T8 construct: on transfected FreeStyle 293-F cells
Put plainly: flow cytometry, 293-F cells with CD137 chimera. The procedure:
as §4, §5

In test [10] the target is T9, human/mouse CD137 chimera 1553.
T9 construct: on transfected FreeStyle 293-F cells
Put plainly: flow cytometry, 293-F cells with CD137 chimera. The procedure: as §4, §5

The target in test [11] is T10, human/mouse CD137 chimera 1554.
T10 construct: on transfected FreeStyle 293-F cells
Put plainly: flow cytometry, 293-F cells with CD137 chimera. The procedure: as §4, §5

The target in test [12] is T11, human/mouse CD137 chimera 1555.
T11 construct: on transfected FreeStyle 293-F cells
Put plainly: flow cytometry, 293-F cells with CD137 chimera. As to the method: as §4, §5

Test [13] addresses Human CD137 (R&D systems) (human, UniProt Q07011 24-186, limits assumed). Put plainly: SPR Biacore, amine-coupled CD137, mAb injected (bivalent). The procedure:
Human CD137 (R&D systems) was immobilized to the Biacore™ sensor chip, CMS, using conventional amine coupling. The tested antibody and control (serially diluted 1/2 10-0.63 nM) were analyzed for binding in HBS-P (GE, #BR-1003-68) at a flow rate of […]. The association was followed for 5 minutes and the dissociation for 15 minutes. Regeneration was performed twice using 10 mM Glycine pH 1.7 for 30 seconds. The kinetic parameters and the affinity constants were calculated using 1:1 Langmuir model.
(In general: Surface plasmon resonance follows binding to a sensor surface in real time, without labels.)

Test [14] has as its target T12, biotinylated CD137 (UniProt Q07011 24-186, limits assumed, biotinylated). Put plainly: SPR MASS-1, biotinylated antigen on streptavidin chip, parental mAb.
The target of test [15] is T13, full-length human CD137 construct 1030 (human, UniProt Q07011 24-255).
T13 construct: whole, on cells; on transfected FreeStyle 293-F cells; also called Full-length CD137
T13 sequence (Q07011 24-255): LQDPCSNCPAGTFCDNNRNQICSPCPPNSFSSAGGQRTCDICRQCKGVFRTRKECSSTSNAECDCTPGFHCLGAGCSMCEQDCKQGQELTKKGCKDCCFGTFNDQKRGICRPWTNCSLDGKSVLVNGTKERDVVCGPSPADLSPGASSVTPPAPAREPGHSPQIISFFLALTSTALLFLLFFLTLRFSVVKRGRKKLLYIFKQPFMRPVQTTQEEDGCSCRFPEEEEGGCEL
Put plainly: flow cytometry, 293-F cells with full-length CD137 (reference of the normalization). The procedure:
as §4, §5

Test [16] deals with T12, biotinylated CD137. Put plainly: SPR MASS-1, biotinylated antigen on streptavidin chip, parental mAb (same value as printed at r8c7, repeated in the row of 1618-1210).

Human CD137 (R&D systems), sequence (Q07011 24-186 limits assumed): as the sequence (Q07011 24-186 limits assumed) above
T12 sequence (Q07011 24-186 limits assumed): as above
T1 sequence (P25942 21-193 limits assumed): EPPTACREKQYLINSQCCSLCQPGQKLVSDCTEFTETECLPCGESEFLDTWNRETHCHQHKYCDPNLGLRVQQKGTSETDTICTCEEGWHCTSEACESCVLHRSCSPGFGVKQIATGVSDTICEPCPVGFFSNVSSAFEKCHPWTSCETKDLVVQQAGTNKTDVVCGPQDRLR
T5 sequence (Q07011 other isoform, or with tags, fused parts or gaps limits assumed): as the sequence (P25942 other isoform, or with tags, fused parts or gaps) above, with L4P, S19N, K50R, I66T, S67P, Y69F, E75G, A149V counted along it

B1: 1618/1619 (antibody, V domains shown)
VH: EVQLLESGGGLVQPGGSLRLSCAASGFTFSYGSMYWVRQAPGKGLEWVSSISSGSGSTYYADSVKGRFTISRDNSKNTLYLQMNSLRAEDTAVYYCARSSYYGSYYSIDYWGQGTLVTVSS
VL: DIQMTQSPSSLSASVGDRVTITCRASQSISSYLNWYQQKPGKAPKLLIYAASSLQSGVPSRFSGSGSGTDFTLTISSLQPEDFATYYCQQYYDNLPTFGQGTKLEIK
Consider B1, for which the binding result in test [1] and in [2] was “no binding (tested: 10 µg/ml)” in each case. Besides, the EC50 (in general, the concentration needed to bring the measured effect to its halfway point) was 0.35 nM in test [3], 0.086 to 0.15 µg/mL in test [5] and 0.11 to 0.19 µg/mL in test [6]. Also, the “Ratio, cyno:human” value in test [4] worked out at 0.77. The “MFI/isotype control normalized to full-length human CD137” value in test [7] came to 0.11; in [8], 0.67; in test [9] it was 1.2; in test [10], 1.24; in test [11], 1.01; in test [12], 0.12. The “MFI/isotype control normalized to full-length human CD137” value in test [15] stood at 1. The figures for the Kd (in test [13]; with biotinylated CD137 [14]; with biotinylated CD137 [16]) were 0.107 nM, 0.156 nM and 0.156 nM, respectively. The koff (commonly a measure of how fast the partners let go of each other) in [13] was 0.00011 s⁻¹. Also, the kon (as a rule, a measure of how fast the partners come together) in test [13] was determined as 1.02e+06 M⁻¹ s⁻¹.
